Test results from PMC7611084 (Chemical communications (Cambridge, England), 2020).
One block for each molecule: values may come before it.

Legend:
[1] = biological target: T1, SpCID1 (Schizosaccharomyces pombe, UniProt O13833); assay: fluorescence titration; assay type: binding
T1 sequence (O13833 1-405): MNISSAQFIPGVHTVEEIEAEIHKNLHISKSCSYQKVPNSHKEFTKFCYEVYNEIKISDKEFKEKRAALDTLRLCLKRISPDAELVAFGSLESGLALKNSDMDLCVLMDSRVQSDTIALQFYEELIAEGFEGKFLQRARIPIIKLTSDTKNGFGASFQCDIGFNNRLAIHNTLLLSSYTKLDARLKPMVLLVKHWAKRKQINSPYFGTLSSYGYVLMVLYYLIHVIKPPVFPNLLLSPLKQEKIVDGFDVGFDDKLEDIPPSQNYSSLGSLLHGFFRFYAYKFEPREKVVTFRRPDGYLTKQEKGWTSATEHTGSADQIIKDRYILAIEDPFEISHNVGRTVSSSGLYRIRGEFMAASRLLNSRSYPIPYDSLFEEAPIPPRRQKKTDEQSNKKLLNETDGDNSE

[2] = biological target: T2, SpCID1 (caffeine-induced death suppressor 1, terminal uridylyl transferase) (Schizosaccharomyces pombe, UniProt O13833 1-405); assay: fluorescence titration
T2 sequence: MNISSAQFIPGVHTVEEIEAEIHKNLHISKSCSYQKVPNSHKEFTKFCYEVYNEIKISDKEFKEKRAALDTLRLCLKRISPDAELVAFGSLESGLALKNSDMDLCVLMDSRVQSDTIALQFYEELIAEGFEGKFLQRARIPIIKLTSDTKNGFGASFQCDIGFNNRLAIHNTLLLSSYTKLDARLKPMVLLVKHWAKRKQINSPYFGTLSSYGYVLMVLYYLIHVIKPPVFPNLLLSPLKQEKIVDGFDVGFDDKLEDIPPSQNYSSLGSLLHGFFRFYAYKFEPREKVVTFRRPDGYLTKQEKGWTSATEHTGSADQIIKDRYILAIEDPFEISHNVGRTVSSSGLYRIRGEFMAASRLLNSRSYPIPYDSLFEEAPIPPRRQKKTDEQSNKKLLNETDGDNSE

[3] = biological target: T2, SpCID1 (caffeine-induced death …); assay: EMSA

Kd [1]: 180 ± 40 nM
Molecule: O=c1[nH]c(=O)n([C@@H]2O[C@H](COP(=O)(O)OP(=O)(O)OP(=O)(O)O)[C@@H](O)[C@H]2O)cc1-c1cc2ccccc2o1 [compound 2, BFUTP]

Molecule: UUACCAUAGAAUCAUGUGCCAUACAUCAU (ssRNA, 3'-terminal U (position 29) is 5-benzofuran-uridine (BFU)) [4BFU]
Kd [2]: 520 ± 40 nM

Molecule: UUACCAUAGAAUCAUGUGCCAUACAUCAU (ssRNA, 3'-terminal U (position 29) is 5-benzofuran-uridine (BFU)) [3BFU]
Kd [3]: ~5.4 µM
